# Reference: the supplement of paper PMC5998384
# Tests used:
# [1] = test system: HeLa Kyoto; experiment: solubility in G1/S (NP-40 vs SDS abundance) (log2 ratio); higher = more soluble; settings: cell cycle stage: G1/S
# [2] = test system: HeLa Kyoto; experiment: solubility change mitosis vs G1/S (difference of NP-40 vs SDS log2 ratios) (log2 ratio difference); higher = more soluble in mitosis
# [3] = test system: HeLa Kyoto; experiment: melting temperature (median over replicates), in situ; higher = more thermally stable
# 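For melting temperature (median over replicates), in situ in this document: HeLa Kyoto cells synchronized by double thymidine or nocodazole block, proteins quantified by TMT10plex mass spectrometry, three independent biological replicates.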
# 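For solubility change mitosis vs G1/S (difference of NP-40 vs SDS log2 ratios) in this document: synchronized HeLa Kyoto cells (double thymidine block for G1/S, nocodazole release for mitosis), protein amounts in NP-40 versus SDS lysates quantified by mass spectrometry, three biological replicates.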
# 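For solubility in G1/S (NP-40 vs SDS abundance) in this document: HeLa Kyoto cells arrested at G1/S by double thymidine block, proteins quantified by TMT10plex mass spectrometry in mild NP-40 versus SDS extracts, three biological replicates.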
sequence,measurement,setting,value
MEGQSVEELLAKAEQDEAEKLQRITVHKELELQFDLGNLLASDRNPPTGLRCAGPTPEAELQALARDNTQLLINQLWQLPTERVEEAIVARLPEPTTRLPREKPLPRPRPLTRWQQFARLKGIRPKKKTNLVWDEVSGQWRRRWGYQRARDDTKEWLIEVPGNADPLEDQFAKRIQAKKERVAKNELNRLRNLARAHKMQLPSAAGLHPTGHQSKEELGRAMQVAKVSTASVGRFQERLPKEKVPRGSGKKRKFQPLFGDFAAEKKNQLELLRVMNSKKPQLDVTRATNKQMREEDQEEAAKRRKMSQKGKRKGGRQGPGGKRKGGPPSQGGKRKGGLGGKMNSGPPGLGGKRKGGQRPGGKRRK [RRS1],solubility in G1/S (log2),[1],-1.81
same,solubility change mitosis (log2),[2],1.09
same,melting temperature,[3]; cell cycle stage: G1/S,55.2 °C
same,melting temperature,[3]; cell cycle stage: mitosis,53 °C
MELERIVSAALLAFVQTHLPEADLSGLDEVIFSYVLGVLEDLGPSGPSEENFDMEAFTEMMEAYVPGFAHIPRGTIGDMMQKLSGQLSDARNKENLQPQSSGVQGQVPISPEPLQRPEMLKEETRSSAAAAADTQDEATGAEEELLPGVDVLLEVFPTCSVEQAQWVLAKARGDLEEAVQMLVEGKEEGPAAWEGPNQDLPRRLRGPQKDELKSFILQKYMMVDSAEDQKIHRPMAPKEAPKKLIRYIDNQVVSTKGERFKDVRNPEAEEMKATYINLKPARKYRFH [CUEDC2],solubility in G1/S (log2),[1],0.417
same,solubility change mitosis (log2),[2],0.134
same,melting temperature,[3]; cell cycle stage: G1/S,46.8 °C
same,melting temperature,[3]; cell cycle stage: mitosis,51.7 °C
MELHILEHRLQVASVAKESIPLFTYGLIKLAFLSSKTRCKFFSLTETPEDYTIIVDEEGFLELPSSEHLSVADATWLALNVVSGGGSFSSSQPIGVTKIAKSVIAPLADQNISVFMLSTYQTDFILVRERDLPFVTHTLSSEFTILRVVNGETVAAENLGITNGFVKPKLVQRPVIHPLSSPSNRFCVTSLDPDTLPAVATLLMDVMFYSNGVKDPMATGDDCGHIRFFSFSLIEGYISLVMDVQTQQRFPSNLLFTSASGELWKMVRIGGQPLGFDECGIVAQISEPLAAADIPAYYISTFKFDHALVPEENINGVISALKVSQAEKH [GATSL2],solubility in G1/S (log2),[1],0.084
same,solubility change mitosis (log2),[2],-0.149
same,melting temperature,[3]; cell cycle stage: G1/S,56.4 °C
same,melting temperature,[3]; cell cycle stage: mitosis,57.8 °C
MELIQDTSRPPLEYVKGVPLIKYFAEALGPLQSFQARPDDLLINTYPKSGTTWVSQILDMIYQGGDLEKCNRAPIYVRVPFLEVNDPGEPSGLETLKDTPPPRLIKSHLPLALLPQTLLDQKVKVVYVARNPKDVAVSYYHFHRMEKAHPEPGTWDSFLEKFMAGEVSYGSWYQHVQEWWELSRTHPVLYLFYEDMKENPKREIQKILEFVGRSLPEETMDFMVQHTSFKEMKKNPMTNYTTVPQELMDHSISPFMRKGMAGDWKTTFTVAQNERFDADYAEKMAGCSLSFRSEL [SULT1A3],solubility in G1/S (log2),[1],0.432
same,solubility change mitosis (log2),[2],-0.174
same,melting temperature,[3]; cell cycle stage: G1/S,48.5 °C
same,melting temperature,[3]; cell cycle stage: mitosis,49.2 °C
MELIQDTSRPPLEYVKGVPLIKYFAEALGPLQSFQARPDDLLISTYPKSGTTWVSQILDMIYQGGDLEKCHRAPIFMRVPFLEFKAPGIPSGMETLKDTPAPRLLKTHLPLALLPQTLLDQKVKVVYVARNAKDVAVSYYHFYHMAKVHPEPGTWDSFLEKFMVGEVSYGSWYQHVQEWWELSRTHPVLYLFYEDMKENPKREIQKILEFVGRSLPEETVDFVVQHTSFKEMKKNPMTNYTTVPQEFMDHSISPFMRKGMAGDWKTTFTVAQNERFDADYAEKMAGCSLSFRSEL [SULT1A1],solubility in G1/S (log2),[1],0.0556
same,solubility change mitosis (log2),[2],-0.0949
same,melting temperature,[3]; cell cycle stage: mitosis,49.2 °C
MEPPNLYPVKLYVYDLSKGLARRLSPIMLGKQLEGIWHTSIVVHKDEFFFGSGGISSCPPGGTLLGPPDSVVDVGSTEVTEEIFLEYLSSLGESLFRGEAYNLFEHNCNTFSNEVAQFLTGRKIPSYITDLPSEVLSTPFGQALRPLLDSIQIQPPGGSSVGRPNGQS [DESI1],solubility in G1/S (log2),[1],0.341
same,solubility change mitosis (log2),[2],-0.0645
same,melting temperature,[3]; cell cycle stage: G1/S,47.1 °C
same,melting temperature,[3]; cell cycle stage: mitosis,48.4 °C
MEQAPNMAEPRGPVDHGVQIRFITEPVSGAEMGTLRRGGRRPAKDARASTYGVAVRVQGIAGQPFVVLNSGEKGGDSFGVQIKGANDQGASGALSSDLELPENPYSQVKGFPAPSQSSTSDEEPGAYWNGKLLRSHSQASLAGPGPVDPSNRSNSMLELAPKVASPGSTIDTAPLSSVDSLINKFDSQLGGQARGRTGRRTRMLPPEQRKRSKSLDSRLPRDTFEERERQSTNHWTSSTKYDNHVGTSKQPAQSQNLSPLSGFSRSRQTQDWVLQSFEEPRRSAQDPTMLQFKSTPDLLRDQQEAAPPGSVDHMKATIYGILREGSSESETSVRRKVSLVLEKMQPLVMVSSGSTKAVAGQGELTRKVEELQRKLDEEVKKRQKLEPSQVGLERQLEEKTEECSRLQELLERRKGEAQQSNKELQNMKRLLDQGEDLRHGLETQVMELQNKLKHVQGPEPAKEVLLKDLLETRELLEEVLEGKQRVEEQLRLRERELTALKGALKEEVASRDQEVEHVRQQYQRDTEQLRRSMQDATQDHAVLEAERQKMSALVRGLQRELEETSEETGHWQSMFQKNKEDLRATKQELLQLRMEKEEMEEELGEKIEVLQRELEQARASAGDTRQVEVLKKELLRTQEELKELQAERQSQEVAGRHRDRELEKQLAVLRVEADRGRELEEQNLQLQKTLQQLRQDCEEASKAKMVAEAEATVLGQRRAAVETTLRETQEENDEFRRRILGLEQQLKETRGLVDGGEAVEARLRDKLQRLEAEKQQLEEALNASQEEEGSLAAAKRALEARLEEAQRGLARLGQEQQTLNRALEEEGKQREVLRRGKAELEEQKRLLDRTVDRLNKELEKIGEDSKQALQQLQAQLEDYKEKARREVADAQRQAKDWASEAEKTSGGLSRLQDEIQRLRQALQASQAERDTARLDKELLAQRLQGLEQEAENKKRSQDDRARQLKGLEEKVSRLETELDEEKNTVELLTDRVNRGRDQVDQLRTELMQERSARQDLECDKISLERQNKDLKTRLASSEGFQKPSASLSQLESQNQLLQERLQAEEREKTVLQSTNRKLERKVKELSIQIEDERQHVNDQKDQLSLRVKALKRQVDEAEEEIERLDGLRKKAQREVEEQHEVNEQLQARIKSLEKDSWRKASRSAAESALKNEGLSSDEEFDSVYDPSSIASLLTESNLQTSSC [CGN],solubility in G1/S (log2),[1],-0.601
same,solubility change mitosis (log2),[2],0.648
same,melting temperature,[3]; cell cycle stage: G1/S,53.6 °C
same,melting temperature,[3]; cell cycle stage: mitosis,53.6 °C
MFAKLKKKIAEETAVAQRPGGATRIPRSVSKESVASMGADSGDDFASDGSSSREDLSSQLLRRNEQIRKLEARLSDYAEQVRNLQKIKEKLEIALEKHQDSSMRKFQEQNETFQANRAKMAEGLALALARKDQEWSEKMDQLEKEKNILTAQLQEMKNQSMNLFQRRDEMDELEGFQQQELSKIKHMLLKKEESLGKMEQELEARTRELSRTQEELMNSNQMSSDLSQKLEELQRHYSTLEEQRDHVIASKTGAESKITALEQKEQELQALIQQLSIDLQKVTAETQEKEDVITHLQEKVASLEKRLEQNLSGEEHLQELLKEKTLAEQNLEDTRQQLLAARSSQAKAINTLETRVRELEQTLQASEEQLQQSKGIVAAQETQIQELAAANQESSHVQQQALALEQQFLERTQALEAQIVALERTRAADQTTAEQGMRQLEQENAALKECRNEYERSLQNHQFELKKLKEEWSQREIVSVAMAQALEEVRKQREEFQQQAANLTAIIDEKEQNLREKTEVLLQKEQEILQLERGHNSALLQIHQLQAELEALRTLKAEEAAVVAEQEDLLRLRGPLQAEALSVNESHVTSRAMQDPVFQLPTAGRTPNGEVGAMDLTQLQKEKQDLEQQLLEKNKTIKQMQQRMLELRKTLQKELKIRPDNELFEVREKPGPEMANMAPSVTNNTDLTDAREINFEYLKHVVLKFMSCRESEAFHLIKAVSVLLNFSQEEENMLKETLEYKMSWFGSKPAPKGSIRPSISNPRIPWS [GOLGA1],solubility in G1/S (log2),[1],0.556
same,solubility change mitosis (log2),[2],0.0219
same,melting temperature,[3]; cell cycle stage: G1/S,49.5 °C
MFPRPLTPLAAPNGAEPLGRALRRAPLGRARAGLGGPPLLLPSMLMFAVIVASSGLLLMIERGILAEMKPLPLHPPGREGTAWRGKAPKPGGLSLRAGDADLQVRQDVRNRTLRAVCGQPGMPRDPWDLPVGQRRTLLRHILVSDRYRFLYCYVPKVACSNWKRVMKVLAGVLDSVDVRLKMDHRSDLVFLADLRPEEIRYRLQHYFKFLFVREPLERLLSAYRNKFGEIREYQQRYGAEIVRRYRAGAGPSPAGDDVTFPEFLRYLVDEDPERMNEHWMPVYHLCQPCAVHYDFVGSYERLEADANQVLEWVRAPPHVRFPARQAWYRPASPESLHYHLCSAPRALLQDVLPKYILDFSLFAYPLPNVTKEACQQ [CHST14],solubility in G1/S (log2),[1],0.333
same,solubility change mitosis (log2),[2],-0.0549
same,melting temperature,[3]; cell cycle stage: G1/S,51.9 °C
